Data reported in the supplement of paper PMC5998384.

Key:
HeLa Kyoto [1] = assay: thermal stability score vs G1/S (z-score of summed log2 fold changes over temperatures); higher = more thermally stable than in G1/S
HeLa Kyoto [2] = assay: solubility change mitosis vs G1/S (difference of NP-40 vs SDS log2 ratios) (log2 ratio difference); higher = more soluble in mitosis
HeLa Kyoto [3] = assay: melting temperature (median over replicates), in situ; higher = more thermally stable
HeLa Kyoto [4] = assay: solubility in G1/S (NP-40 vs SDS abundance) (log2 ratio); higher = more soluble; settings: cell cycle stage: G1/S
[5] = cell cycle stage: early G1 (4.5 h after nocodazole release)
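For melting temperature (median over replicates), in situ in this document: HeLa Kyoto cells synchronized by double thymidine or nocodazole block, proteins quantified by TMT10plex mass spectrometry, three independent biological replicates.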
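For solubility change mitosis vs G1/S (difference of NP-40 vs SDS log2 ratios) in this document: synchronized HeLa Kyoto cells (double thymidine block for G1/S, nocodazole release for mitosis), protein amounts in NP-40 versus SDS lysates quantified by mass spectrometry, three biological replicates.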
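For solubility in G1/S (NP-40 vs SDS abundance) in this document: HeLa Kyoto cells arrested at G1/S by double thymidine block, proteins quantified by TMT10plex mass spectrometry in mild NP-40 versus SDS extracts, three biological replicates.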
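For thermal stability score vs G1/S (z-score of summed log2 fold changes over temperatures) in this document: synchronized HeLa Kyoto cells, proteins quantified by TMT10plex mass spectrometry, three biological replicates, mitosis taken 0.5 h after nocodazole release, G1/S directly after double thymidine block.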

Sequence	thermal stability score (HeLa Kyoto [1]; [5])	thermal stability score (HeLa Kyoto [1]; cell cycle stage: mitosis)	solubility change mitosis (log2) (HeLa Kyoto [2])	melting temperature (HeLa Kyoto [3]; cell cycle stage: G1/S) [°C]	melting temperature (HeLa Kyoto [3]; cell cycle stage: mitosis) [°C]	solubility in G1/S (log2) (HeLa Kyoto [4])
MSPARRCRGMRAAVAASVGLSEGPAGSRSGRLFRPPSPAPAAPGARLLRLPGSGAVQAASPERAGWTEALRAAVAELRAGAVVAVPTDTLYGLACAASCSAALRAVYRLKGRSEAKPLAVCLGRVADVYRYCRVRVPEGLLKDLLPGPVTLVMERSEELNKDLNPFTPLVGIRIPDHAFMQDLAQMFEGPLALTSANLSSQASSLNVEEFQDLWPQLSLVIDGGQIGDGQSPECRLGSTVVDLSVPGKFGIIRPGCALESTTAILQQKYGLLPSHASYL [YRDC]	0.325	0.668	-0.0312	52.3	52.7	0.378
MSQAVQTNGTQPLSKTWELSLYELQRTPQEAITDGLEIVVSPRSLHSELMCPICLDMLKNTMTTKECLHRFCADCIITALRSGNKECPTCRKKLVSKRSLRPDPNFDALISKIYPSRDEYEAHQERVLARINKHNNQQALSHSIEEGLKIQAMNRLQRGKKQQIENGSGAEDNGDSSHCSNASTHSNQEAGPSNKRTKTSDDSGLELDNNNAAMAIDPVMDGASEIELVFRPHPTLMEKDDSAQTRYIKTSGNATVDHLSKYLAVRLALEELRSKGESNQMNLDTASEKQYTIYIATASGQFTVLNGSFSLELVSEKYWKVNKPMELYYAPTKEHK [RNF2]	0.412	0.728	0.211	49.2	51.7	-0.307
MSQPGIPASGGAPASLQAQNGAALASGSPYTNGPVQNALLSSQESVSQGYNFQLPGSYPHPIPAKTLNPVSGQSNYGGSQGSGQTLNRPPVASNPVTPSLHSGPAPRMPLPASQNPATTPMPSSSFLPEANLPPPLNWQYNYPSTASQTNHCPRASSQPTVSGNTSLTTNHQYVSSGYPSLQNSFIKSGPSVPPLVNPPLPTTFQPGAPHGPPPAGGPPPVRALTPLTSSYRDVPQPLFNSAVNQEGITSNTNNGSMVVHSSYDEIEGGGLLATPQLTNKNPKMSRSVGYSYPSLPPGYQNTTPPGATGVPPSSLNYPSGPQAFTQTPLGANHLTTSMSGLSLQPEGLRVVNLLQERNMLPSTPLKPPVPNLHEDIQKLNCNPELFRCTLTSIPQTQALLNKAKLPLGLLLHPFKDLVQLPVVTSSTIVRCRSCRTYINPFVSFLDQRRWKCNLCYRVNDVPEEFLYNPLTRVYGEPHRRPEVQNATIEFMAPSEYMLRPPQPPVYLFVFDVSHNAVETGYLNSVCQSLLDNLDLLPGNTRTKIGFITFDSTIHFYGLQESLSQPQMLIVSDIEDVFIPMPENLLVNLNESKELVQDLLKTLPQMFTKTLETQSALGPALQAAFKLMSPTGGRMSVFQTQLPTLGVGALKPREEPNHRSSAKDIHMTPSTDFYKKLALDCSGQQVAVDLFLLSGQYSDLASLGCISRYSAGSVYYYPSYHHQHNPVQVQKLQKELQRYLTRKIGFEAVMRIRCTKGLSIHTFHGNFFVRSTDLLSLPNVNPDAGYAVQMSVEESLTDTQLVSFQSALLYTSSKGERRIRVHTLCLPVVSTLNDVFLGADVQAISGLLANMAVDRSMTASLSDARDALVNAVIDSLSAYRSSVLSNQQPGLMVPFSLRLFPLFVLALLKQKSFQTGTNARLDERIFAMCQVKNQPLVYLMLTTHPSLYRVDNLSDEGALNISDRTIPQPPILQLSVEKLSRDGAFLMDAGSVLMLWVGKNCTQNFLSQVLGVQNYASIPQPMTDLPELDTPESARIIAFISWLREQRPFFPILYVIRDESPMKANFLQNMIEDRTESALSYYEFLLHIQQQVNK [SEC24A]	0.052	0.892	-0.0997	49.5	49.5	0.00033
MSQPPPPPPPLPPPPPPPEAPQTPSSLASAAASGGLLKRRDRRILSGSCPDPKCQARLFFPASGSVSIECTECGQRHEQQQLLGVEEVTDPDVVLHNLLRNALLGVTGAPKKNTELVKVMGLSNYHCKLLSPILARYGMDKQTGRAKLLRDMNQGELFDCALLGDRAFLIEPEHVNTVGYGKDRSGSLLYLHDTLEDIKRANKSQECLIPVHVDGDGHCLVHAVSRALVGRELFWHALRENLKQHFQQHLARYQALFHDFIDAAEWEDIINECDPLFVPPEGVPLGLRNIHIFGLANVLHRPIILLDSLSGMRSSGDYSATFLPGLIPAEKCTGKDGHLNKPICIAWSSSGRNHYIPLVGIKGAALPKLPMNLLPKAWGVPQDLIKKYIKLEEDGGCVIGGDRSLQDKYLLRLVAAMEEVFMDKHGIHPSLVADVHQYFYRRTGVIGVQPEEVTAAAKKAVMDNRLHKCLLCGALSELHVPPEWLAPGGKLYNLAKSTHGQLRTDKNYSFPLNNLVCSYDSVKDVLVPDYGMSNLTACNWCHGTSVRKVRGDGSIVYLDGDRTNSRSTGGKCGCGFKHFWDGKEYDNLPEAFPITLEWGGRVVRETVYWFQYESDSSLNSNVYDVAMKLVTKHFPGEFGSEILVQKVVHTILHQTAKKNPDDYTPVNIDGAHAQRVGDVQGQESESQLPTKIILTGQKTKTLHKEELNMSKTERTIQQNITEQASVMQKRKTEKLKQEQKGQPRTVSPSTIRDGPSSAPATPTKAPYSPTTSKEKKIRITTNDGRQSMVTLKSSTTFFELQESIAREFNIPPYLQCIRYGFPPKELMPPQAGMEKEPVPLQHGDRITIEILKSKAEGGQSAAAHSAHTVKQEDIAVTGKLSSKELQEQAEKEMYSLCLLATLMGEDVWSYAKGLPHMFQQGGVFYSIMKKTMGMADGKHCTFPHLPGKTFVYNASEDRLELCVDAAGHFPIGPDVEDLVKEAVSQVRAEATTRSRESSPSHGLLKLGSGGVVKKKSEQLHNVTAFQGKGHSLGTASGNPHLDPRARETSVVRKHNTGTDFSNSSTKTEPSVFTASSSNSELIRIAPGVVTMRDGRQLDPDLVEAQRKKLQEMVSSIQASMDRHLRDQSTEQSPSDLPQRKTEVVSSSAKSGSLQTGLPESFPLTGGTENLNTETTDGCVADALGAAFATRSKAQRGNSVEELEEMDSQDAEMTNTTEPMDHS [VCPIP1]	1.21	1.02	-0.0432	48.3	48.8	-0.111
MSQTAMSETYDFLFKFLVIGNAGTGKSCLLHQFIEKKFKDDSNHTIGVEFGSKIINVGGKYVKLQIWDTAGQERFRSVTRSYYRGAAGALLVYDITSRETYNALTNWLTDARMLASQNIVIILCGNKKDLDADREVTFLEASRFAQENELMFLETSALTGENVEEAFVQCARKILNKIESGELDPERMGSGIQYGDAALRQLRSPRRAQAPNAQECGC [RAB4A]	-3.03	-3.68	-0.0763	59.5	57.6	0.0401
MSRCAQAAEVAATVPGAGVGNVGLRPPMVPRQASFFPPPVPNPFVQQTQIGSARRVQIVLLGIILLPIRVLLVALILLLAWPFAAISTVCCPEKLTHPITGWRRKITQTALKFLGRAMFFSMGFIVAVKGKIASPLEAPVFVAAPHSTFFDGIACVVAGLPSMVSRNENAQVPLIGRLLRAVQPVLVSRVDPDSRKNTINEIIKRTTSGGEWPQILVFPEGTCTNRSCLITFKPGAFIPGVPVQPVLLRYPNKLDTVTWTWQGYTFIQLCMLTFCQLFTKVEVEFMPVQVPNDEEKNDPVLFANKVRNLMAEALGIPVTDHTYEDCRLMISAGQLTLPMEAGLVEFTKISRKLKLDWDGVRKHLDEYASIASSSKGGRIGIEEFAKYLKLPVSDVLRQLFALFDRNHDGSIDFREYVIGLAVLCNPSNTEEIIQVAFKLFDVDEDGYITEEEFSTILQASLGVPDLDVSGLFKEIAQGDSISYEEFKSFALKHPEYAKIFTTYLDLQTCHVFSLPKEVQTTPSTASNKVSPEKHEESTSDKKDD [LPCAT2]	1.39	1.37	-0.289	51.3	52.5	-0.00721
MSRFVQDLSKAMSQDGASQFQEVIRQELELSVKKELEKILTTASSHEFEHTKKDLDGFRKLFHRFLQEKGPSVDWGKIQRPPEDSIQPYEKIKARGLPDNISSVLNKLVVVKLNGGLGTSMGCKGPKSLIGVRNENTFLDLTVQQIEHLNKTYNTDVPLVLMNSFNTDEDTKKILQKYNHCRVKIYTFNQSRYPRINKESLLPVAKDVSYSGENTEAWYPPGHGDIYASFYNSGLLDTFIGEGKEYIFVSNIDNLGATVDLYILNHLMNPPNGKRCEFVMEVTNKTRADVKGGTLTQYEGKLRLVEIAQVPKAHVDEFKSVSKFKIFNTNNLWISLAAVKRLQEQNAIDMEIIVNAKTLDGGLNVIQLETAVGAAIKSFENSLGINVPRSRFLPVKTTSDLLLVMSNLYSLNAGSLTMSEKREFPTVPLVKLGSSFTKVQDYLRRFESIPDMLELDHLTVSGDVTFGKNVSLKGTVIIIANHGDRIDIPPGAVLENKIVSGNLRILDH [UGP2]	0.682	0.921	-0.072	55.9	56	0.158
